Experimental data reported in the supplement of paper PMC10567573.

B1: SLC19A2 (parent)
chain: IYPVWTYSYLVLLFPVFLATDYLR
B2: MIA2 (parent)
chain: SVIEPVQESSFRSRKIAVEDENDL

Variants of: B1
Assay: protein stability index of a GFP-peptide fusion (GPS, HEK-293T) (PSI 1-6); higher = more stable
Details: c terminus: a fixed tail appended
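Note: lentivirally expressed fusions sorted by FACS into six bins by GFP to DsRed ratio, PSI derived from sequencing read proportions per bin multiplied by bin number.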

Protein stability index of substitutions, site by site:
V11: A 3.63, G 3.44, L 2.77, C 3.16, M 1.95, W 4.19, F 2.34, Q 4.14, N 2.92, P 2.04, H 3.87, I 3.28, D 3.85
L10: N 4.14, I 2.9, S 3.94, R 2.9, G 3.23, W 3.88, E 3.11, T 2.94, P 2.29, H 3.75, M 2.85, V 3.74, D 4.06, Q 2.81, Y 3.63, K 1.93
Y7: N 3.72, M 2.32, T 2.58, I 2.4, Q 2.58, H 1.33, F 2.84, W 3.7, E 3.72, R 3.07
L13: I 2.53, E 2.6, D 3.57, F 2.64, M 3.06, G 1.19, C 2.38, A 3.41
I1: G 2.67, Y 1.63, L 3.49, H 4.44, R 1.87, S 2.54, V 4.95, F 2.21, P 3.33, M 2.3, W 2.38, N 2.98, T 3.48, A 2.12
V4: I 3.46, S 3.21, T 3.3, F 3.35, G 3.35, Q 3.11, D 2.85, H 3.32, M 2.76, K 2.96, L 3.73, C 2.33, E 3.43, Y 2.91, A 2.73, N 3.44
S8: W 2.99, E 3.31, M 3.15, L 2.69, R 3.57, I 2.41, A 4.5, F 2.43, Q 3.59, C 3.17, G 2.84, D 3.67, K 3.14, P 3.7, H 3.06
T6: K 3.04, Q 2.73, M 2.95, N 3.48, H 3.42, R 2.39, L 4.55, S 2.86, A 2.63, D 2.08, Y 3.51, E 2.71, V 2.9
L12: W 3.3, D 2.3, Y 2.31, P 3.92, S 2.91, T 2.41, R 2.37, N 1.72, V 2.6, M 2.48, I 3.39, H 3.3, A 3.41, Q 3.02, K 3.56, F 2.25
W5: S 2.89, H 3.15, M 2.65, C 3.27, Y 2.72, G 4.5, N 2.25, K 4.35, E 3.02, V 2.65, L 2.19, D 2.3, F 3.25, R 3.39, I 4.83, A 3.28, P 3.19
P3: N 2.57, G 3.79, H 3.02, S 3.26, E 2.5, A 3.47, L 3.98, K 2.02, W 3.05, C 3.34, Y 2.94
Y9: C 4.17, K 2.81, M 2.97, D 3.8, E 2.2, F 1.75, R 4.42, Q 2.02, L 2.46, T 2.67, V 3.11, I 3.67, H 2.97, N 3.02
Y2: A 3.21, D 2.77, H 2.29, K 2.44, L 2.15, M 3.15, I 4.61, T 4.06, S 2.56, G 1.97, E 2.56, P 2.62, V 3.19, W 3.59, F 3.09, Q 3.11

Variants of: B2
Assay: as above
Details: c terminus: a fixed tail appended

Protein stability index, by site and new letter:
I16: V 5.41, Y 4.98, W 4.66, T 5.37
N22: A 5.47, D 5.84, V 5.73, F 4.96, K 5.04, T 5.33, P 4.96, M 4.74, I 4.89, S 3.82, R 5.09, Y 4.53, W 4.35, H 5.43, Q 5.77, G 5.04, E 5.08, L 4.8, C 5
E21: F 4.31, I 4.46, W 3.85, T 5.19, A 4.83, R 4.7, M 4.32, P 4.42, C 4.32, N 4.74, H 4.63, Q 5.29, D 5.38, G 5.27, L 4.62, S 5.23, V 4.9, Y 4.47, K 5.05
E19: G 4.5, F 4.53, A 5.13, R 4.51, D 5.03, Y 4.67, V 5.03, I 4.25, L 4.56, S 5.31, N 5.08, T 5.02, H 4.56, W 4.15, K 5.35, P 5.32, C 4.62, Q 5.33, M 4.62
A17: Y 4.87, T 5.09, H 5.53, C 4.81, M 5.55, G 5.14, Q 5.44, N 5.45, D 5.43, W 4.92, E 5.68, K 5.59, S 4.86, V 5.3, P 5.66, F 5.05, L 4.97, I 5.05, R 4.77
L24: D 5.26, P 5.42, G 5.75, V 5.82, S 5.88, Y 4.92, T 5.57, Q 5.51, E 5.67, R 5.49, H 5, F 5.19, C 5.32, I 4.66, W 4.73, A 5.43, M 5.31, N 5.67, K 5.12
D20: W 4.1, Q 5.25, A 4.63, N 5.57, Y 4.18, T 5.38, F 3.83, C 4.89, P 3.94, G 5.21, M 4.8, L 4.42, I 4.64, V 4.57, K 5.13, H 4.35, E 5.72, R 4.94
D23: H 4.95, A 5.26, M 4.82, T 4.71, K 4.95, Y 4.24, Q 5.83, S 5.2, N 5.1, F 3.65, L 4.63, E 5.54, I 4.64, V 5.1, P 4.28, W 3.86, C 4.39, G 4.72, R 5.07
V18: L 4.56, R 5.72, A 5.35, M 4.43, N 5.1, F 5.36, S 5.69, W 5.16, K 5.63, P 5.32, E 5.53, H 5.36, I 5.3, D 4.18, Q 5.15, G 5.18, C 5.03, T 4.94, Y 5.21
